The results in this text go back to article PMC4605270.

For the assay, the target named is Borrelia burgdorferi hybrid histidine kinase Hk1 periplasmic sensor domain D1 (Borrelia burgdorferi strain 5A4 NP1). In words: SEC. On the technique in general: Size exclusion chromatography separates by hydrodynamic size, large species first.

As usually defined, the stoichiometry N is the number of molecules, sites or subunits per partner or assembly.

As to “Borrelia burgdorferi hybrid histidine kinase Hk1 periplasmic sensor domain D1 (domain or fragment)”, the stoichiometry N was 2.
